Tests used:
[1] = target: T1, IgFLNaΔA20–21 (filamin A domains 20–21 lacking the first β strand of domain 20, residues 2151–2329) (Homo sapiens (Human), UniProt P21333); assay: NMR HSQC titration, crystal structure
T1 chain: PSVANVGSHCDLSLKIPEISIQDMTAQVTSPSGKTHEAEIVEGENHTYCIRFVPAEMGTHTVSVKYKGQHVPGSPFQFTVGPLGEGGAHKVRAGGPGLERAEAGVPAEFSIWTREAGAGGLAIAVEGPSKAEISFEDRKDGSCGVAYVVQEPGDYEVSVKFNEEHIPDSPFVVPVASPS

[2] = target: T2, IgFLNa20–21 (filamin A immunoglobulin-like domains 20–21, residues 2141–2329) (Homo sapiens (Human), UniProt P21333); assay: SAXS
T2 chain: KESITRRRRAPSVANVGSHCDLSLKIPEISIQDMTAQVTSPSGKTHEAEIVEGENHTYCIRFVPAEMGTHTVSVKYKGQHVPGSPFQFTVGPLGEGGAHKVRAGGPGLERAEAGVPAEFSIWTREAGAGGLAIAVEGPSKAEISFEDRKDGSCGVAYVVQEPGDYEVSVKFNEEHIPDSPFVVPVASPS

[3] = target: T3, IgFLNaΔA20–21 (filamin A domains 20–21 lacking the first β strand of domain 20, residues 2151–2329) (UniProt P21333 2151-2329); assay: SAXS; 277 K; 20 mM Tris pH 8.0, 100 mM NaCl, 10 mM DTT; 1–4 mg/ml IgFLNa20–21 or IgFLNa∆A20–21; two times molar excess of migfilin peptide where added; details: both partners purified
T3 construct: filamin A (FLNa), Ig-like domains 20–21 without the A strand of domain 20 (2141–2150), residues 2151–2329; residues 2151–2235 form domain ΔA20 and 2236–2329 domain 21; 15N (and 13C) isotope-labelled for the NMR experiments; same construct; also called IgFLNa∆A20–21; IgFLNΔAa20–21; source: E. coli BL21, purified (Glutathione Sepharose, TEV cleavage, size-exclusion chromatography)
T3 sequence (looked up): T1 chain

[4] = target: T4, IgFLNa20–21 (filamin A immunoglobulin-like domains 20–21, residues 2141–2329) (UniProt P21333 2141-2329); assay: as above; details: both partners purified
T4 construct: Cloned into a modified pGEX vector; also called FLNa mechanosensor domain pair 20–21; source: E. coli BL21, purified (Glutathione Sepharose, TEV cleavage, size-exclusion chromatography)
T4 sequence (looked up): T2 chain

Measured: binding result

B1: migfilin peptide (residues 5–28) (peptide)
peptide: PEKRVASSVFITLAPPRRDVAVAE
notes: migfilin, residues 5–28; it is removed here; Only residues 6–20 are seen in the crystal structure; also called migfilin^5–28 peptide; migfilin-derived peptide; source: bought: EZBiolab (Westfield, IN)
binds: all assays above
